Common to all, as to test: HPLC assay of 7-O-glucoside formation
Common to all, as to type: biochemical, Camellia sinensis
What all share (details): 2.5 mM UDP-glucose, pH 8.0, 40°C

In data set [1] the test system is T1, O=c1cc(-c2ccc(O)c(O)c2)oc2cc(O)cc(O)c12.
T1 construct: Ni-TED purified (methods say amylose resin)

Data set [2] concerns T2, O=c1c(O)c(-c2ccc(O)cc2)oc2cc(O)cc(O)c12.
T2 construct: Ni-TED purified (methods say amylose resin)

For data set [3], the system named is T3, O=c1c(O)c(-c2ccc(O)c(O)c2)oc2cc(O)cc(O)c12.
T3 construct: Ni-TED purified (methods say amylose resin)

In data set [4] the test system is T4, O=c1cc(-c2ccc(O)cc2)oc2cc(O)cc(O)c12.
T4 construct: Ni-TED purified (methods say amylose resin)

For orientation: Km means the concentration of substrate that gives half-maximal velocity.

For “rCsUGT89A2 (CsUGT89A2, LOC114303213) (Camellia sinensis var. sinensis)”, the Michaelis-Menten constant (Km) was found to be 76.4 µM in data set [1], 164.5 µM in data set [2], 106.0 µM in data set [3] and 46.3 µM in data set [4].

The values above are taken from article PMC12577854, “CsUGT89A2 enhances tea plant resistance to Toxoptera aurantia by mediating flavonoid glycosides biosynthesis” (Horticulture Research, 2025).
